As usually defined, the Kd is the constant that tells how readily two partners part at equilibrium.

Sequences and labels used below:
B1: C1002 (antibody, V domains shown)
VH: EVQLVESGGGLVQPGGSLRLSCAASEFIVSSNYMTWVRQAPGKGLEWVSIMYPGGSTFYADSVKGRFTISRDNSKNTLYLQINRLRAEDTAVYYCARDIAGRLDYWGQGTLVTVSS
VL: DIQMTQSPSSLSASVGDRVTITCQASQDINNYLNWYQQKPGKAPKLLIYDASNLETGVPSRFSGSGSGTDFSFTISSLQPEDIATYYCQQYDNLSRLTFGGGTKVEIK
notes: source: 293-6E cells, transfected, purified (Protein G Sepharose)
B2: C3123 (antibody, V domains shown)
VH: QVQLQESGPGLVKPSQTLSLTCAVSGDSVSRGGFYWTWIRQLPGMGLECIGYIDYSGSTHYNPSLKSRVTISLDTSNNQFSLKMTSVTAADTALYYCARGAVPGIGWFDPWGQGTLVTVSS
VL: SYELTQPPSVSVAPGKTASISCGGNNIATKSVHWYQQKPGQAPALVIYYDSDRPSGIPERFSGSNSGNTATLTISRVEAGDEAAYYCQVWESSGDHVVFGGGTKLTVL
notes: as for B1
B3: C978 (antibody, V domains shown)
VH: QVQLVQSGAEVKKPGSSVKVSCKASGATFSNYIISWVRQAPGQGLEWMGRTIPLLDIANYAQKFQGRVTITADKSTRIVYMHLGSLTSEDTAVYYCATGKGYSSSSAAYYFDHWGQGTLVTVSS
VL: QSVLTQPPSVSGAPGQRVTISCTGTNSNIGAGYDIHWYQQLPGTAPKLLIYGSNNRPSGVPDRFSGSKSGTSASLAITGLQAEDEADYYCQSYDSSLSGSEVFGGGTKLTVL
notes: as for B1
B4: C3057 (antibody, V domains shown)
VH: QVQLVQSGGGLVQPGGSLRLSCEASGLSVSRNYMRWVRQAPGKGLEWVSLIYSGGSTFYADSVKGRFTISRDNSKNTLYLQMTSLRAEDTAVYYCARDLVDYGMDVWGHGTTVTVSS
VL: DIQLTQSPSFLSASVGDRVTITCRASQGISNYLAWYQQKPGKAPQLLIYAASTLQSGVPSRFSGSGSGTEFTLTISSLQPEDFATYFCQQLNSDVITFGQGTRLEIK
notes: as for B1
B5: C2593 (antibody, V domains shown)
VH: QVQLVQSGAEVKKPGSSVKVSCKASGGTFNSYAITWVRQAPGQGLEWMGGIIFIFDTANYAQKFQGRVTITADESTSTVYMELSSLRSEDTAVYYCARPGAELRDHYYYYGMDVWGQGTTVTVSS
VL: DIVMTQSPLSLPVTPGEPASISCRSTQSLLHSNGNNYLDWYLQKPGQSPQLLIYLASNRAPGVPDRFSGSGSGTDFTLRISRVEAEDVGVYYCMQALQTPPTFGQGTRLEIK
notes: as for B1
B6: C3054 (antibody, V domains shown)
VH: EVQLVESGGGLGQPGGSLRLSCVASGFSFSTYSMNWVRQAPGKGLEWLSYINAGSTTIYSADSVTGRFSISRDNAKNSLYLHMNSLRADDTAVYYCARGVPFDYWGQGTLVTVSS
VL: DIVMTQTPLSLPVTPGEPASISCRSSRSLLDSDDADTYLDWYLQKPGQSPQLLIYTLSYRASGVPDRFSGSGSGTDFTLKISRVEAEDVGVYYCMQRIQFPWTFGQGTKVEIK
notes: as for B1
B7: C971 (antibody, V domains shown)
VH: EVQLVESGGGLVKPGGSLRLSCAASGFTFNNAWMTWVRQAPGKGLEWVGRIKSKTDGGTTDYGTPAKGRFTISRDDSKNTLYLQMKSLRTEDTAVYYCTTVDVQGIWELLENDAFDIWGQGTMVTVSS
VL: EIVLTQSPGTLSLSPGERATLSCRATQAISSTYLAWYQQKPGQAPRLLIYGAFSRAPGIPDRFSGSGSETDFTLTISRLEPEDFAVYYCQQSDRSPFTFGPGTKVDIK
notes: as for B1
B8: C3083 (antibody, V domains shown)
VH: EVQLVESGGGFVRPGGSLRLSCSTSGFTFSMFAMHWVRQAPGKGLEYVSGVSSNGLNTYYADSVKGRLVISRDDSKNTLYLQMTGLRVEDTAVYYCVKDDDFGDPGYGYHLDYWGQGTLVTVSS
VL: QSALTQPASVSGSPGQSITISCTGTSSDVGGYNYVSWFQQHPGKAPKLVIFEVSNRPSGISDRFSGSKSGNTASLTISELQAEDEADYYCSSYTSRIPIIFGTGTKVTV
notes: as for B1
B9: C1047 (antibody, V domains shown)
VH: EVQLVQSGAEVKKPGESLKISCKGSGYSFISYWIVWVRQMPGKGLEWIGIIYPGDSDTIYSPSFQGQVTLSADKSISTAYLQWSSLKASDTAIYYCAKMVTSGTSYYETRGYASSGPFDNWGQGTLVTVSS
VL: DIQLTQSPSSLSASVGDRVTITCRASQGISSALAWYQQKPGKAPKLLIYDASSLESGVPSRFSGSGSGTDFTLTISSLQPEDFATYYCQQSDNFGPGTKVDI
notes: as for B1
B10: C963 (antibody, V domains shown)
VH: QVQLVQSGAEVKKPGSSVRVSCKASGGTFSSFTITWVRQAPGQGLEWMGRIIPNLNIPNYAQRFQGRITITAEKSTSTAYLELSSLRSEDTAVYYCARGVGYSGSGSNWYFDLWGRGTLVTVSS
VL: QSVLTQPPSVSGAPGQRVTISCTGSSSNIGAGYDVHWYQQLPGTAPKLLISGHINRPSGVPDRFSGSTSGTSASLAITGLQAEDEADYYCQSYDSSLSDSVFGGGTKLTV
notes: as for B1
B11: C3060 (antibody, V domains shown)
VH: QVQLQESGPGLLKPSQTLSLICTVSGGSISSGDYYWNWIRQTPGKGLEWIGYIYYSGITYYNPSLKSRLSISLDTPKNQFSLKLTSVTAADTAVYYCATGPPTVTTENFDNWGQGTLVTVSS
VL: QSVLTQPPSVSAAPGQKVTISCSGSSSNIGNYYVSWYQQLPGTAPQLVIYDNNKRPSGIPDRFSGSKSGTSATLAITGLQTGDEADYYCGTWDASLNAGVFGGGTRLTVL
notes: as for B1
B12: C3111 (antibody, V domains shown)
VH: EVQLVESGGRVVRPGESLRLSCAASGFNFNDYGMSWVRQVPGKGLEWVSGINWNGAISGYVDSVKGRFIISRDNAKNSLYLQMNSLRAEDTALYHCARAYCGDECYSLLVRGDALDIWGQGTMVTVSS
VL: QSVLTQPPSVSAAPGQTVTISCSGSSSNIGMNDVSWYQHLPGTAPKLLIYDSHKRPSGIPDRFSGSNSGTSATLGITGLQTGDEAHYYCGAWDSSLSAVVFGGGTMLAVL
notes: as for B1
B13: C080 (antibody, V domains shown)
VH: EVQLVQSGAEVKKPGESLNISCKASGYSFTIYWIAWVRQLPGKGLEWMGIIYPGDSDTRYSPSFQGQVTISADKSISTAYLQWRSLKASDSAVYYCARGVAVDWYFDLWGRGTLVTVSS
VL: QSVLTQPPSVSGAPGQRVTISCAGSSSNIGAGFDVYWYQQLPGTAPKLLIYGNNNRPSGVPDRFSGSKSGTSASLAITGLQAEDEADYYCQSSGSVLSDLYVFGTGTKVTVL
notes: as for B1
B14: C996 (antibody, V domains shown)
VH: EVQLVESGGGLVQPGGSLRLSCVASGFTSTNYDMHWVRQAPGRGLQWVSSIGTAGDTYYPGSVRGRFTISRENAKNSLDLQMNSLRVGDTAVYYCARGQRGYYDRSGYYWGWRAFDIWGQGTMVTVSS
VL: SYELTQPPSVSVAPGQTARITCGGNNIGNKSVYWYQQKPGQAPVLVVYDDSGRPSGIPERFSGSNSANTATLTISRVEAGDEADYYCQVWDNNSDQFGGGTKLTVL
notes: as for B1
B15: C099 (antibody, V domains shown)
VH: EVQLVESGGGLIQPGGSLRLSCAASGITVSSNYMSWVRQAPGKGLEWVSVMYAGGSTFYADSVKGRFTISRDDSKNTLFLQMNSLRAEDTAIYYCARDLYSSGGTDIWGQGTMVTVSS
VL: EIVLTQSPGTLSLSPGERATLSCRASQSIGSSYLAWYQQKPGLAPRLLIYGASRRATGIPDKFSGSGSGADFTLTISRLEPEDFAVYYCQQYGSSPGTFGQGTKVEIK
notes: as for B1
B16: C118 (antibody, V domains shown)
VH: QVQLVESGGGVVQPGRSLRLSCAASGFTFSNYAMHWVRQAPGKGLEWVAVISYDGSNKYYADSVKGRFTISRDNSKNTLYLQMNSLRAEDTAIYYCASGYTGYDYFVRGDYYGLDVWGQGTTVTVSS
VL: QPVLTQSPSASASLGASVKLTCTLSSGHSSYAIAWHQQQPEKGPRYLMKLNTDGSHSKGDGIPDRFSGSSSGAERYLTISSLQSEDEADYYCQTWGTGILVFGGGTKLTVL
notes: as for B1
B17: C1040 (antibody, V domains shown)
VH: QVQLVESGGGVVQPGRSLRLSCAASGFSFINYNMHWVRQAPGKGLEWVAVIWYDGSNKYYADSVKGRFTISRDNSKNTLYLQMNSLRVEDTAVYYCARDPAITEAEIDYWGQGTLVTVSS
VL: DVVMTQSPLSLPVTLGQAASISCRSSQSLVHSDGNTYLNWFQQRPGQSPRRLIYRVSNRDSGVPDRFSASGSGTDFTLKISRVEAEDVGVYYCMQGTHWPWTFGQGTKVEIK
notes: as for B1
B18: C1068 (antibody, V domains shown)
VH: QVQLVESGGGVVQPGRSLRLSCAASGFTFSTFAMHWVRQAPGKGLEWVAVTSYDGSNKYYADSVKGRFTISRDNSKNTLYLQMNSLRAEDTAVYYCARGLLWFGESEYFQHWGQGTLVTVSS
VL: not shown
notes: as for B1
B19: C1049 (antibody, V domains shown)
VH: EVQLVQSGAEVKKPGESLKISCKSSGYSFISHWIGWVRQMPGKGLEWMGIIWPGDSDTRYSPSFQGQVTISVDKSITTVYLQWSSLKAADTAMYYCARRGSSWEVDYWGQGTLVTVSS
VL: not shown
notes: as for B1
B20: C022 (antibody, V domains shown)
VH: QVQLQESGPGLVKPSETLSVTCTVSGGSISSSRYYWGWIRQPPGKGLEWIGSIYYSGSTYYNPSLKSRVTISVDTSKNQFSLKLSSVTAADTAVYYCARHAAAYYDRSGYYFIEYFQHWGQGTLVTVSS
VL: DIQMTQSPSTLSASVGDSVTITCRASQSISSWLAWYQQKPGKAPKLLIYKASSLESGVPSRFSGSGSGTEFTLTISSLQPDDFATYYCQQYNNYRYTFGQGTKLEIK
notes: as for B1
B21: C2588 (antibody, V domains shown)
VH: QVQLVQSGAEVKKPGSSVKVSCKASGDTFNIYAINWVRQAPGQGLEWMGRIIPRFGMANYAQKFQGRVTMTADKSTSTAYMDLISLKSEDTAVYYCATSAYLSGSGHYFDYWGQGTLVTVSS
VL: EIVLTQSPATLSLSPGERATLSCRASQSVGGSFLAWYQQKPGQAPRLLIYGASSRATGIPDRFSGSGSGTDFTLTISRLEPEDFAVYFCQQYASSRTFGQGTKVEIK
notes: as for B1
B22: C986 (antibody, V domains shown)
VH: EVQLVQSGAEVKKPGETLKISCKGSGDSFSNYWIGWVRQSPGKGLEWMAIVYPGDSDARYSPSFQGQVTISADKSVTTAYLKWSSLKASDTAIYYCVRGLPVDWYFDLWGRGTLVTVSS
VL: QSVLTQPPSVSGAPEQRVTISCTGSSSNIGAGHDVHWYQQLPGTAPKLLIYNNNNRPSGVPDRFSGSKSGASASLAISGLQAEDEAEYYCQSYDKSLSVLYVLGTGTKVTV
notes: as for B1

The target in this test is WT RBD (SARS-CoV-2 Wuhan-Hu-1 spike receptor binding domain) (SARS-CoV-2 (Wuhan-Hu-1), UniProt P0DTC2). Briefly: BLI. The settings on record: both partners purified.
Take B1: binding was characterised by a dissociation constant (Kd) of 0.441 nM.

B2 registered a Kd of 1.57 nM.

B3 came in with a Kd of 1.33 nM.

As to B4, the Kd was 2.08 nM. B5 had a Kd of 1.37 nM.

As for B6, the Kd amounted to 2.49 nM.

In turn, B7 displayed a Kd of 0.949 nM. As for B8, the Kd turned out to be 0.201 nM. B9: the equilibrium dissociation constant (Kd) came to 4.99 nM.

As for B10, the Kd was 0.653 nM. This Kd is about 7.6-fold lower than that of the molecule before.

The molecule B11 returned a dissociation constant Kd of 1.1 nM.

B12 displayed a Kd of 0.236 nM. This Kd lies about 4.7-fold lower than the previous one. Take B13: the Kd came to 0.286 nM. The value for B14 was 3.72 nM; that for B15 was 0.00214 nM; that for B16 was 2.66 nM.

For B17, binding was put at a Kd of 2.08 nM. As to B18, the Kd was 28.8 nM. On to B19, for which binding was put at a Kd of 2.35 nM.

For B20, the Kd was 3.15 nM. B21 had a Kd of 1.47 nM. This Kd is about 2.1-fold lower than that of the molecule before.

B22 came in with a Kd of 0.472 nM.

Values taken from article PMC9849103 (Nature Communications, 2023).
